We go through six molecules from patent US20120207760A1.

Common to all, as to conditions: remark: other sources report otherwise
Assay [1] has as its target recombinant homotrimeric HA, A/Anhui/1/05 H5N1 (Influenza A virus A/Anhui/1/05 (H5N1)). The assay is described as follows: trimeric HA microarray, transfection set 2.
Assay [2] has as its target T1, recombinant homotrimeric HA, A/California/4/09 H1N1 (Influenza A virus A/California/4/09 (H1N1)). In words: trimeric HA microarray, transfection set 2.
The target in assay [3] is recombinant homotrimeric HA, A/Egypt/3300-NAMRU3/08 H5N1 (Influenza A virus A/Egypt/3300-NAMRU3/08 (H5N1)). In words: trimeric HA microarray, transfection set 2.
For assay [4], the target named is recombinant homotrimeric HA, A/Hong Kong/1073/99 H9N2 (Influenza A virus A/Hong Kong/1073/99 (H9N2)). In words: trimeric HA microarray, transfection set 2.
For assay [5], the target named is recombinant homotrimeric HA, A/Hong Kong/2108/03 H9N2 (Influenza A virus A/Hong Kong/2108/03 (H9N2)). In words: trimeric HA microarray, transfection set 2.
The target of assay [6] is T2, recombinant homotrimeric HA, A/Indonesia/5/05 H5N1 (Influenza A virus A/Indonesia/5/05 (H5N1)). The assay is described as follows: trimeric HA microarray, transfection set 2.
Assay [7] deals with T3, recombinant homotrimeric HA, A/Japan/305/57 H2N2 (Influenza A virus A/Japan/305/57 (H2N2)). In words: trimeric HA microarray, transfection set 2.
For assay [8], the target named is recombinant homotrimeric HA, A/Netherlands/219/03 H7N7 (Influenza A virus A/Netherlands/219/03 (H7N7)). In words: trimeric HA microarray, transfection set 2.
Assay [9] concerns the target T4, recombinant homotrimeric HA, A/Solomon Islands/3/06 H1N1 (Influenza A virus A/Solomon Islands/3/06 (H1N1)). In words: trimeric HA microarray, transfection set 2.
In assay [10] the target is T5, recombinant homotrimeric HA, A/South Carolina/1/18 H1N1 (Influenza A virus A/South Carolina/1/18 (H1N1)). In words: trimeric HA microarray, transfection set 2.
The target of assay [11] is T6, recombinant homotrimeric HA, A/Vietnam/1203/04 H5N1 (Influenza A virus A/Vietnam/1203/04 (H5N1)). In words: trimeric HA microarray, transfection set 2.
For assay [12], the target named is T7, recombinant homotrimeric HA, A/Wisconsin/67/05 H3N2 (Influenza A virus A/Wisconsin/67/05 (H3N2)). The assay is described as follows: trimeric HA microarray, transfection set 2.
The target in assay [13] is recombinant homotrimeric HA, A/chicken/Vietnam/NCVD-016/08 H5N1 (Influenza A virus A/chicken/Vietnam/NCVD-016/08 (H5N1)). The assay is described as follows: trimeric HA microarray, transfection set 2.
Assay [14] addresses recombinant homotrimeric HA, A/common magpie/Hong Kong/5052/07 H5N1 (Influenza A virus A/common magpie/Hong Kong/5052/07 (H5N1)). The assay is described as follows: trimeric HA microarray, transfection set 2.
Assay [15] concerns the target recombinant homotrimeric HA, A/duck/Yangzhou/02/05 H8N4 (Influenza A virus A/duck/Yangzhou/02/2005 (H8N4)). The assay is described as follows: trimeric HA microarray, transfection set 2.
Assay [16] concerns the target recombinant homotrimeric HA, A/northern shoveler/California/HKWF115/07 (Influenza A virus A/northern shoveler/California/HKWF115/2007 (H6N1)). The assay is described as follows: trimeric HA microarray, transfection set 2.
Assay [17] has as its target T1, recombinant homotrimeric HA, …. In words: trimeric HA microarray, transfection set 5.
The target of assay [18] is T2, recombinant homotrimeric HA, …. The assay is described as follows: trimeric HA microarray, transfection set 5.
Assay [19] concerns the target T3, recombinant homotrimeric HA, …. In words: trimeric HA microarray, transfection set 5.
For assay [20], the target named is T4, recombinant homotrimeric HA, A/Solomon …. The assay is described as follows: trimeric HA microarray, transfection set 5.
Assay [21] deals with T5, recombinant homotrimeric HA, A/South …. In words: trimeric HA microarray, transfection set 5.
In assay [22] the target is T6, recombinant homotrimeric HA, …. The assay is described as follows: trimeric HA microarray, transfection set 5.
The target of assay [23] is T7, recombinant homotrimeric HA, …. In words: trimeric HA microarray, transfection set 5.
The target in assay [24] is T8, recombinant homotrimeric HA, A/swine/Ontario/01911-2/99 H4N6 (Influenza A virus A/swine/Ontario/01911-2/99 (H4N6)). In words: trimeric HA microarray, transfection set 5.
The target in assay [25] is T8, recombinant homotrimeric HA, …. In words: trimeric HA microarray, transfection set 2.
The target in assay [26] is recombinant soluble homotrimeric HA of A/chicken/Vietnam/NCVD-016/08 (H5N1) (Influenza A virus A/chicken/Vietnam/NCVD-016/08 (H5N1)). In words: microarray, BCC supernatant IgG, trimeric HA.
Assay [27] addresses recombinant soluble homotrimeric HA of A/northern shoveler/California/HKWF115/07 (Influenza A virus A/northern shoveler/California/HKWF115/2007). In words: microarray, BCC supernatant IgG, trimeric HA.
For assay [28], the target named is T1, recombinant homotrimeric HA, …. The assay is described as follows: trimeric HA microarray, transfection set 4.
Assay [29] deals with T2, recombinant homotrimeric HA, …. The assay is described as follows: trimeric HA microarray, transfection set 4.
Assay [30] has as its target T3, recombinant homotrimeric HA, …. In words: trimeric HA microarray, transfection set 4.
In assay [31] the target is T4, recombinant homotrimeric HA, A/Solomon …. The assay is described as follows: trimeric HA microarray, transfection set 4.
In assay [32] the target is T5, recombinant homotrimeric HA, A/South …. In words: trimeric HA microarray, transfection set 4.
In assay [33] the target is T6, recombinant homotrimeric HA, …. The assay is described as follows: trimeric HA microarray, transfection set 4.
The target of assay [34] is T7, recombinant homotrimeric HA, …. In words: trimeric HA microarray, transfection set 4.

B1: TCN-563 (5237_B21) (antibody, V domains shown)
VH: QVQLAQSGAEVKRPGSSVKVSCTASGGIFRKNAISWVRQAPGQGLEWMGGIIAVFNTANYAQKFQGRVKITADESGNTAYMELSSLRSDDTAVYYCASHPKYFYGSGSYPDFWGQGTLVTVSS
VL: QSALTQPRSVSGSPGQSVTISCTGSSSDVGASNSVSWYQQHPGKAPKLVIYDVTERPSGVPHRFSGSKSGNTASLTVSGLQPEDEADYFCCAYGGKYLVVFGGGTKVTVL
On to B1, for which the Trimeric HA Binding RLU in assay [1] turned out to be 1570 RLU; in assay [2] it was 21200 RLU; in assay [3], 23900 RLU; in [4], 49200 RLU; in assay [5], 364 RLU; in assay [6] it was 47300 RLU. For the same molecule, the Trimeric HA Binding RLU in [7] was found to be 11200 RLU; in assay [8], 5420 RLU; in assay [9], 26500 RLU; in [10], 17800 RLU; in [11], 31500 RLU; in assay [12], 23700 RLU. Also, the Trimeric HA Binding RLU in assay [13] amounted to 36300 RLU; in assay [14], 52800 RLU; in assay [15], 6280 RLU; in assay [16] it was 21900 RLU.

B2: TCN-557 (5081_A04) (antibody, V domains shown)
VH: QVQLVQSGAEVKKPGASVKVSCKASGHTFTGYYIHWVRQAPGQGLEWMGWINPDSGATSSAQNFQGRVTMTGDTSSSTAYMELSRLSFDDTAVYYCARVLFTSPFDFWGEGTLVTVSS
VL: QAVVTQEPSLAVSPGGTVTLTCGSSTGAVTRGHYPYWFQQKPGQAPRALIYDSAGNRHSWTPARFSGSLLGGKAALTLSGAQPEDEAEYYCLLSYSGVWVFGGGTKLTVL
In the case of B2, the Trimeric HA Binding RLU in [17] came to 44400 RLU; in assay [18], 22200 RLU; in assay [19], 27300 RLU; in assay [20], 27000 RLU; in assay [21] it was 44900 RLU; in assay [22], 21300 RLU. Also, the Trimeric HA Binding RLU in assay [23] was found to be 46100 RLU; in assay [24], 41500 RLU.

B3: TCN-526 (5084_C17) (antibody, V domains shown)
VH: EVLMVESGGGLVQPGGSVRLSCVASGFSFSSHWMTWVRQAPGKGLEWVANIEDDGGDKYYVDSVKGRFIISRDNAKNSVYLQMNSLRAEDTAVYFCARGSGSSDRSDYDPHYYYYLDVWGKGATVTVSS
VL: DIQLTQSPSSLSASVGDRVTITCRASQSISRYLNWYQQKPGKAPKLLLFAASTLLDGVPSRFSGSGSGTDFTLTISSLQPEDFATYYCQRNHSPSWTFGQGTRVEIK
On to B3, for which the Trimeric HA Binding RLU in [4] is 490 RLU; in assay [7], 3590 RLU; in [8] it was 5660 RLU; in [9], 1470 RLU; in assay [10], 2310 RLU; in assay [12] it was 27800 RLU. In addition, in assay [25], the Trimeric HA Binding RLU is 3490 RLU.

B4: TCN-548 (5092_P01) (antibody, V domains shown)
VH: QVQLQESGPGLVKPSETLSLTCTVSSGPMSDYYWSWIRQPPGKGLEWIGHVSVSHGGRTKSNPSVMSRVTISVETSKNQFSLKLTSVTAADTAVYYCARLNYYDRSGYHSPDGPSNNWFDPWGQGTLVTVSS
VL: not shown
Take B4: the Trimeric HA Binding RLU in assay [17] was 818 RLU; in assay [19] it was 1020 RLU; in assay [20], 750 RLU; in assay [21], 1150 RLU. Also, the Trimeric HA Binding: RLU in assay [26] was determined as 254 RLU; in [27], 314 RLU.

B5: TCN-534 (5249_B02) (antibody, V domains shown)
VH: QVQLVQSGAEVKKPGSSVKVSCRESGGTFNGYTITWVRQAPGQGLEWMGGIIPMMGTVNYAQKLQGRVTITTDYFTKTAYMDLNNLRSEDTAMYYCVKIRYTGQQLLWGQGTLVTVSS
VL: DIQMTQSPSTLSASIGDRVTITCRASQSIASWLAWYQQKPGKAPKLLIYEAVNLESGVPSRFSGSGSGTDFTLTISSLQPDDFATYFCQHYGTISQTFGGGTKVEIK
B5: the Trimeric HA Binding RLU in assay [28] is 27000 RLU; in [29] it was 948 RLU; in assay [30], 14700 RLU; in [31] it was 60 RLU; in assay [32], 11800 RLU; in assay [33], 23700 RLU. In addition, the Trimeric HA Binding RLU in [34] came to 897 RLU.

B6: TCN-527 (5086_C06) (antibody, V domains shown)
VH: QVQLQESGPGLVKPSETLSLNCAVSGGSISNYYWSWIRQPPGKGLEWIGYISYNGRPKYNPSLTSRVTISVDTSKDQFSLELRSVTAADTALYYCARETRFGELLSPYDAFEIWGQGTMVTVSS
VL: DIQMTQSPSSLSASVGDRVTMTCRASQNIRSYLNWYQQRPGTAPKLLIYAASTLHSGVPSRFSGGGSGTDFTLTINNLQPEDFASYYCQQSYDNPQTFGQGTKVEIK
Consider B6, for which the Trimeric HA Binding RLU is 15200 RLU in assay [1]; 21500 RLU in [2]; 23600 RLU in [3]; 557 RLU in assay [4]; 25500 RLU in [5]; 23400 RLU in assay [6]. In addition, the Trimeric HA Binding RLU in assay [7] came out at 20800 RLU; in assay [8], 49100 RLU; in assay [9] it was 19700 RLU; in assay [10], 48100 RLU; in assay [11] it was 20600 RLU; in assay [12] it was 35800 RLU. The Trimeric HA Binding RLU in [13] is 20100 RLU; in [14], 43800 RLU; in assay [15], 17900 RLU; in [16] it was 19300 RLU; in assay [25], 30100 RLU.
